Data on one molecule can be found in patent US20210047427A1 (Takeda / Millennium, published 2021).

The target in this experiment is T1, cynomolgus CD38 (cynomolgus monkey, UniProt Q5VAN0 1-301).
T1 construct: In the assays it is native CD38 on cynomolgus monkey blood lymphocytes; also called cyno CD38; monkey CD38
In words: Flow cytometry of cynomolgus monkey whole blood stained with labelled AB79. MFI converted to MOEF with Rainbow Beads. NK (CD3-, CD159a+), B (CD3-, CD20+) and T (CD3+) cells; 3 individuals, mean with SD.

T1 sequence (Q5VAN0 whole entry): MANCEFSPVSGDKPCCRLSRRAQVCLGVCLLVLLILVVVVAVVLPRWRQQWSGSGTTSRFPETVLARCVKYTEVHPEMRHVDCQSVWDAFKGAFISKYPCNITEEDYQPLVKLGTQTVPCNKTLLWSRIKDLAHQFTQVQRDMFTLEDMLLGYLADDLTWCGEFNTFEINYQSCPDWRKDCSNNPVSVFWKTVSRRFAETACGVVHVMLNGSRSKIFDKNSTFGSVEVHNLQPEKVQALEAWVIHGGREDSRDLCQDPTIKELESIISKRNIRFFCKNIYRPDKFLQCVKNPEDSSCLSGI
Description: The flow cytometric measurements were standardized and the signals are reported in molecules of equivalent soluble fluorescence (MOEF). […] Direct comparison of CD38 expression levels on monkey NK cells (CD3−, CD159a+), B cells (CD3−, CD20+) and T cells (CD3+) and human NK cells (CD3−, CD16/CD56+), B cells (CD3−, CD19+) and T cells (CD3+) were evaluated by flow cytometry.
An aliquot of blood (100 μL) was mixed with appropriate volume of antibody (FIG. 1) and incubated for 15-20 minutes at RT in the dark. After incubation, 1 mL of BD FACS lyse (1×; BD Biosciences; San Jose, Calif.) was added to lyse red blood cells and the cells incubated for 10 minutes at RT in the dark, then centrifuged, decanted and resuspended in 1 mL of staining buffer with bovine serum albumin (BD Biosciences).

B1: AB79 (antibody, human IgG1, lambda, V domains shown)
VH: EVQLLESGGGLVQPGGSLRLSCAASGFTFDDYGMSWVRQAPGKGLEWVSDISWNGGKTHYVDSVKGQFTISRDNSKNTLYLQMNSLRAEDTAVYYCARGSLFHDSSGFYFGHWGQGTLVTVSS
VL: QSVLTQPPSASGTPGQRVTISCSGSSSNIGDNYVSWYQQLPGTAPKLLIYRDSQRPSGVPDRFSGSKSGTSASLAISGLRSEDEADYYCQSYDSSLSGSVFGGGTKLTVLG
Take B1: the binding result is listed as “binds”.
